Experimental findings from patent publication US20170002083A1 (KYMAB, published 2017) are described below.

Assay [1] addresses T1, Recombinant Human OX40L (Leader sequence, Isoleucine Zipper and FLAG Sequence Included) (human).
T1 construct: also called hOX40L; recombinant hOX40L
Description: SPR (ProteOn XPR36), antibody captured on anti-mouse IgG, hOX40L at a single concentration of 256 nM, 1:1 model, apparent affinity, 25 C. As to the method:
(§1) SPR analysis was carried out using the ProteOn™ XPR36 Array System (BioRad). Anti-mouse IgG (GE Healthcare BR-1008-38) was immobilised on a GLM biosensor surface using amine coupling, the surface was then blocked using 1 M ethanolamine. Test antibodies were captured on this surface and recombinant hOX40L (human and rhesus) were used at a single concentration of 256 nM, binding sensorgrams were double referenced using a buffer injection (i.e. 0 nM) to remove baseline drift and injection artefacts. Apparent affinities for the OX40L-antibody interaction were determined using the 1:1 model inherent to the ProteOn XPR36 analysis software. The assay was run using HBS-EP (Teknova) as running buffer and carried out at 25° C.

Assay [2] concerns the target T1, Recombinant Human OX40L (Leader …). Description: HTRF ligand/receptor neutralisation, biotinylated hOX40L, competitor OX40RFc-AF647; mean of three experiments, SEM +/-0.04. The protocol:
(§2) In order to determine whether recombinantly expressed fully human purified IgG inhibit human OX40L binding to OX40RFc the following method was carried out. Fully human purified IgG or other inhibitor were tested in order to establish the clone potency as measured by IC₅₀ values in the assay. Antibodies recombinantly expressed and purified were titrated by diluting in HTRF assay buffer and 5 μL of this titration transferred to a white 384 well low volume non-binding surface polystyrene plate (Greiner). Biotinylated OX40L was diluted in HTRF assay buffer to a working concentration of 2.4 nM and 5 μL added. OX40RFc directly labelled with AF647 was then diluted to working concentration of 10 nM and 5 μL added. Non-specific binding was defined by replacing OX40RFc-AF647 with assay buffer or HMM. […] Plates were covered, protected from light and incubated at room temperature for 3 hrs prior to reading time resolved fluorescence at 620 nm and 665 nm emission wavelengths using an EnVision plate reader (Perkin Elmer). Data were analysed by calculating delta F as described in Equation 4 and percentage of receptor for each sample according to Equation 5 or in some cases Equation 6. IC₅₀ values were determined using GraphPad Prism software by curve fitting using a four-parameter logistic equation (Equation 7) (FIG. 1).
In general terms: Time-resolved FRET reads energy transfer from a long-lived donor to a nearby acceptor.

Assay [3] has the same target. Description: HTRF ligand/receptor neutralisation: biotinylated hOX40L with OX40RFc-AF647, antibody titrated; readout is % of receptor binding. As to the method:
as §2

The target of assay [4] is T2, Recombinant Rhesus OX40L (Leader Sequence, FLAG and Isoleucine zipper included) (Rhesus (Macaca mulatta)).
T2 construct: also called RhsOX40L; Rhesus monkey OX40L
T2 sequence (chain, as listed by the source limits assumed): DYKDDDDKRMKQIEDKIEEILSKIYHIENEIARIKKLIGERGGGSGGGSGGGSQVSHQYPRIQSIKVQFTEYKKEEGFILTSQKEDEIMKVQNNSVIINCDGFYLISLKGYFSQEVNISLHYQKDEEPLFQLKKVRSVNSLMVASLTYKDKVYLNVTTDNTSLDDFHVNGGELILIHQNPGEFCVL
Nature of the assay: SPR (ProteOn XPR36), rhesus OX40L at 256 nM, apparent affinity; CNROR = Cannot resolve off-rate.

Assay [5] deals with T2, Recombinant Rhesus OX40L (Leader …). Description: SPR (ProteOn XPR36), antibody captured, rhesus OX40L at 256 nM, apparent affinity; CNROR = Cannot resolve off-rate. As to the method: as §1
For assay [6], the target named is T1, Recombinant Human OX40L (Leader …). Description: HTRF ligand/receptor neutralisation, biotinylated hOX40L, competitor OX40RFc-AF647; mean of three experiments, SEM +/-0.17. The protocol:
as §2

T1 sequence (chain, as listed by the source limits assumed): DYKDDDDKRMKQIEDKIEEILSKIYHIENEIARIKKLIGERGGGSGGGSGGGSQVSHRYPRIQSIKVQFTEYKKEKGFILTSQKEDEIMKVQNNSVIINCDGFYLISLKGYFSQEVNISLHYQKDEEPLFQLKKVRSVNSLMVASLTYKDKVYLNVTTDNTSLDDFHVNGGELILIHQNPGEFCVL

B1: 9H04 (hybridoma) (antibody, V domains shown)
VH: QVQLVESGGGLVKPGGSLRLSCAASRFTLSDYYMTWIRQAPGKGLEWVSYISSSGNTIYYADSVKGRFTISRDNAKNSLYLQMNSLRAEDTAVYYCARDLSGSYWDYYYGMDVWGQGTTVTVSS
VL: AIQLTQSPSSLSTSVGDRVTIACRASQGINNALAWYQQKPGKAPKLLIYDASSLESGVPSRFSGSGSGTDFTLTISSLQPEDFATYYCQQFNSYPRTFGQGTKVEIK
notes: also called 09H04
B1: the Kd in assay [1] was determined as 5.3 nM.

B2: 2D10 (human) (antibody, human IgG4 S228P, kappa, V domains shown)
VH: EVQLVESGGGLVQPGGSLRLSCAASGFTFSNYAMNWVRQAPGKGLEWVSTISGSGGATRYADSVKGRFTISRDNSRNTVYLQMNSLRVEDTAVFYCTKDRLIMATVRGPYYYGMDVWGQGTTVTVSS
VL: DIQMTQSPSSLSASVGDRVTITCRASQSISSYLNWYQQKPGKAPNLLIYAASSLQSGVPSRFSGSGSETDFTLTISSLQPEDFATYYCQQSHSVSFTFGPGTKVDIKR
notes: also called 02D10; 02D10 IgG4-PE
The term IC50 denotes the concentration at which inhibition is half-maximal. With B2, in assay [2], the 50% inhibitory concentration (IC50) was determined as 0.75 nM. Further, in assay [3], the “IC50 (read off the curve)” value is about 0.8 nM. Besides, the binding result in assay [4] was “binds”.

B3: 2D10 (hybridoma) (antibody, V domains shown)
VH: EVQLVESGGGLVQPGGSLRLSCAASGFTFSNYAMNWVRQAPGKGLEWVSTISGSGGATRYADSVKGRFTISRDNSRNTVYLQMNSLRVEDTAVFYCTKDRLIMATVRGPYYYGMDVWGQGTTVTVSS
VL: DIQMTQSPSSLSASVGDRVTITCRASQSISSYLNWYQQKPGKAPNLLIYAASSLQSGVPSRFSGSGSETDFTLTISSLQPEDFATYYCQQSHSVSFTFGPGTKVDIK
notes: Kappa light chain; also called 02D10
Consider B3, for which, in assay [5], the binding result is “binds”.

B4: 19H01 (hybridoma) (antibody, V domains shown)
VH: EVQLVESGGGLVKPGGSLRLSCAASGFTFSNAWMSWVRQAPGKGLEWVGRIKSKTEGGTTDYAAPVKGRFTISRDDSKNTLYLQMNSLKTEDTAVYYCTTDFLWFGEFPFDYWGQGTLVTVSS
VL: DIQMTQSPSSLSASVGDRVTITCRASQGISNYLAWYQQKPGKIPKLLIYAASTLQSGVPSRFSGSGSGTDFTLTISSLQPEDVATYYCQKYNSAPRTFGQGTKVEIK
For B4, the Kd in assay [1] was 2.2 nM.

B5: 10A07 (human) (antibody, human IgG4 S228P, kappa, V domains shown)
VH: EVQLVESGGVLVQPGGSLRLSCAASGFTFSSYIMTWVRQAPGKGLEWVSGISGSGGGTYYADSMKGRFTISRDNSKNTLYLQMNSLRVEDTAVYYCAKDRLGPITLVRGGYYYGMDVWGQGTTVTVSS
VL: DIQMTQSPSSLSASVGDRVTITCRASQSISDYLNWYQQKPGKAPKFLIYAASSLQSGVPSRFSGSGSGTDFTLTVSSLQPEDFATYYCQQSYSTPRTFGQGTRVEIKR
notes: also called 10A7; 10A07 IgG4PE
Consider B5, for which the “IC50 (read off the curve)” value in assay [3] was about 1 nM. For the same molecule, the binding result in assay [4] is recorded as “binds”. The IC50 in assay [6] amounted to 1.2 nM.

B6: 10A07 (hybridoma) (antibody, V domains shown)
VH: EVQLVESGGVLVQPGGSLRLSCAASGFTFSSYIMTWVRQAPGKGLEWVSGISGSGGGTYYADSMKGRFTISRDNSKNTLYLQMNSLRVEDTAVYYCAKDRLGPITLVRGGYYYGMDVWGQGTTVTVSS
VL: DIQMTQSPSSLSASVGDRVTITCRASQSISDYLNWYQQKPGKAPKFLIYAASSLQSGVPSRFSGSGSGTDFTLTVSSLQPEDFATYYCQQSYSTPRTFGQGTRVEIK
notes: Kappa light chain; also called 10A7; mAb 10A7
For B6, in assay [5], the binding result is recorded as “binds”.
